Fewer inactive variants are shown than the library holds.
B1: TPR 5TU (parent)
chain: GGAUCUUCUCGAUCUAACAAAAAAGACAAAUCUGCCACAAAGCUUGAGAGCAUCUUCGGAUGCAGAGGCGGCAGCCUUCGGUGGCGCGAUAGCGCCAACGUUCUCAACUAUGACACGCAAAACGCGUGCUCCGUUGAAUGGAGUUUAUCAUG

Variants of: B1
Experiment: polymerase ribozyme fitness, log enrichment relative to wild type (log ratio); higher = more active; in vitro selection for triplet polymerase activity
In short: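 Streptavidin-bead capture of gel-excised extended constructs, followed by RT-PCR, closed a single triplicate in vitro selection round. That round began by annealing PCR-built, transcribed mutant libraries of each subunit of a heterodimeric triplet polymerase ribozyme with a biotinylated primer, the partner subunit and triplets, then incubating them frozen at −7 °C. After Illumina sequencing of inputs and outputs, genotypes needed ≥10 input reads and ≥1 read per output. Fitness is the base-2 logarithm of genotype enrichment over wild-type enrichment, using inverse-variance-weighted replicate averages.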

Variant | polymerase ribozyme fitness (log ratio)
GGAUCUUCUCGAUCUAACAAAAAAGACAAAUCUGCCACAUAGCUUGAGAGCAUCUUCGGAUGCAGAGGCGGCAGCCUUCGGUGGCGUUAUAGCGCCAACGUUCUCAACUAUGACACGCAAAACGCGUGCUCCGUUGAAUGGAGUUUAUCAUG [A40U C87U G88U] | ≤ -4.2
GGAUCUUCUCGAUCUAACAAAAAAGACAAAUCUGCCACAUAGCUUGAGAGCAUCUUCGGAUGCAGAGGCGGCAGCCUUCGGUGGCGUGGUAGCGCCAACGUUCUCAACUAUGACACGCAAAACGCGUGCUCCGUUGAAUGGAGUUUAUCAUG [A40U C87U A89G] | -3.2
GGAUCUUCUCGAUCUAACAAAAAAGACAAAUCUGCCACAUAGCUUGAGAGCAUCUUCGGAUGCAGAGGCGGCAGCCUUGGGUGGCGCGAUGGCGCCAACGUUCUCAACUAUGACACGCAAAACGCGUGCUCCGUUGAAUGGAGUUUAUCAUG [A40U C79G A91G] | ≤ -4.2
GGAUCUUCUCGAUCUAACAAAAAAGACAAAUCUGCCACAUAUCUUGAGAGCAUCUUCGGAUGCAGAGGUGGCAGCCUUCGGUGGCGCGGUUGCGCCAACGUUCUCCACUAUGACACGCAAAACGCGUGCUCCGUUGAAUGGAGUUUAUUAUG [A40U G42U C69U A89G A91U A106C C149U] | ≤ -4.2
GGAUCUUCUCGAUCUAACAAAAAAGACAAAUCUGCCACAUAGCUUGAGAGCAUCUUCGGAUGCAGAGACGGCAGCCUUCGGUGGCGCGAUAGCGCCAACGUUCUCAACUAUGACACGCAAAACGCGUGCUCCGUUGAAUGGAGUUUAUCAUG [A40U G68A] | -4.03
GGAUCUUCUCGAUCUAACAAAAAAGACAAAUCUGCCACAUAGCUUGAGAGCAUCUUCGGAUGCAGAGGCGGCAGCCUUCGGUGGCGCGAUAGCGCCAAUGUUCUCAACUAUGACACCCAAAACGCGUGCUCCGUUGAAUGGAGUUUAUCAUG [A40U C99U G117C] | -0.515
GGAUCUUCUCGAUCUAACAAAAAAGACAAAUCUGCCACAUAGCUUGAGAGCAUCUUUGGAUGCAGAGGCGGCAGCAUUCGGUGGCGCGAUAGCGCCAACGUUCUCAACUAUGACACGCAAAACGCGUGCUCCGUUGAAUGGAGUUUAUCAUG [A40U C57U C76A] | -0.244
GGAUCUUCUCGAUCUAACAAAAAAGACAAAUCUGCCACAUAGCUUGAGAGCAUCUUCGGAUGCAGAGGCGGCAGCCUUCGGUGGAGCGAUAGCGCCAACGUUCUCAACUAUGACACGCAAAACGCGUGCUCCGUUGAAUGGAGUUUAUCAUG [A40U C85A] | -1.44
GGAUCUUCUCGAUCUAACAAAAAAGACAAAUCUGCCACAUAGCUUGAGAGCAUCUUCGGAUGCAGAGGCGGCAGCCUUCGGUGGGGCGAUAGCGCCAACGUUCUCAACUAUGACACGCAAAACGCGUGCUCCGUUGAAUGGAGUUUAUCAUG [A40U C85G] | -1.32
GGAUCUUCUCGAUCUAACAAAAAAGACAAAUCUGCCACAUAGCUUGAGAGCAUCUUCGGAUGCAGAGGCGGCAGCCUUCGGUGGCGCGAUAGCGCCAACGUUCUCAACUAUGACACGCAAAACGUGUCCUCCGUUGAAUGGAGUUUAUCAUG [A40U C125U G128C] | ≤ -4.2
GGAUCUUCUCGAUCUAACAAAAAAGACAAAUCUGCCACAUAGCUUGAGAGCAUCUUCGUAUGCAGAGGCGGCAGACUUCGGUGGUGCGAUAGCGCCAACGUUCUCAACAAUGACACGCAAAACGCGUGCUCCGUUGAAUGGAGUUUAUCAUG [A40U G59U C75A C85U U109A] | ≤ -4.2
GGAUCUUCUCGAUCUAACAAAAAAGACAAAUCUGCCACAUAGCUUGAGACCAUCUUCGGAUGCAGAGGCGGCAGCCUUCGGUGGGGCGAUAGCGCCAAUGUUCUCAACUAUGACACGCAAAACGCGUGCUCCGUUGUAUGGAGUUUAGCAUG [A40U G50C C85G C99U A137U U148G] | ≤ -4.2
GGAUCUUCUCGAUCUAACAAAAAAGACAAAUCUGCCACAUAGCUUGAGAGCAUCUUCGGAUGCAGAGGCGGCAGCAUUAGGUGGCGCGAUAGCGCCAACGUUCUCAACUAUGAUACGCAAAACGCGUGCUCCGUUGAAUGGAUUUCAACAUG [A40U C76A C79A C114U G143U U146C U148A] | ≤ -4.2
GGAUCUUCUCGAUCUAACAAAAAAGACAAAUCUGCCACAUAGCUUGAGAGCAUCUUCGGAUGCAGAGGUGGCAGCCUUCGGUGCCGCGAUAGCGCCAACGUUCUCAACUAUGACACGCAAAACGCGUGCUCCGUUGAAUGGACUUUAUCAUG [A40U C69U G84C G143C] | ≤ -4.2
GGAUCUUCUCGAUCUAACAAAAAAGACAAAUCUGCCACAUAGCUUGAGAGCAUCUUCGGAUGCAGAGGAGGCAGCCUUCGGUGGCGCGAUAGCGCCAACGUUCUCAACUAUGACACGCAAAACGCGUGCUCCGUUGAAUGGACUUUAUCAUG [A40U C69A G143C] | -2.79
GGAUCUUCUCGAUCUAACAAAAAAGACAAAUCUGCCACAUAGCUUGAGAGCAUCUUCCGAUGCAGAGGCGGCAGCCUUCGGUGGCGCGAUAGCGCCAACGUUCUCAACUAUGCCACGCAAAACACGUGCUCCGUUGAAUGGAGUUUAUCAUG [A40U G58C A113C G124A] | -2.93
GGAUCUUCUCGAUCUAACAAAAAAGACAAAUCUGCCACAUAGCUUGAGAGCAUCUUCGGAUGCAGAGGCGGCAGCCUUCGGUGGAGCGAUAGCGCCAACGUUCUCAACUAUGACACGCAAAACGCGUGCUCCGUUGAAUGGAGAUUAUCAUG [A40U C85A U144A] | -0.577
GGAUCUUCUCGAUCUAACAAAAAAGACAAAUCUGCCACAUAGCUUGAGAGCAUCUUCGGAUACAGAGGCGGCAGCCUUCGGUGGCGCGAUAGCGCCAACGUUCUCAACUAUGACACGCAAAACGCGUGCUGCGUUAAAUGGAGUUUAUCAUG [A40U G62A C131G G136A] | -3.43
GGAUCUUCUCGAUCUAACAAAAAAGACAAAUCUGCCACAUAGCUUGAGAGCAUCUUCGGAUGCAGAGGCGGCAGCCUUCGGUGGCGCGAUAGCGCCAACGUUCUCAACUAUGAUACGCAAAACGCGUGCUCCGUUGAAUGCAGUUUAUCAUU [A40U C114U G141C G152U] | -3.44

Variant | polymerase ribozyme fitness (log ratio)
GGAUCUUCUCGAUCUAACAAAAAAGACAAAUCUGCCACAUAGCUUGAGAGCAUCUUCGGAUGCAGAGGCGGCAGCCUUCGGUGGCGCGAUAGUGCCAACGGUCUCAACUAUGACACGCAAAACGCGUUCUCCGUUGAAUGGAGUUUAUCAUG [A40U C93U U101G G128U] | -4.04
GGAUCUUCUCGAUCUAACAAAAAAGACAAAUCUGCCACAUAGCUUGACAGCAUCUUCGGAUGCAGAGGGGGCAGCCUUCGGUGGUGCGAUAGCGCCAACGUUCUCAACUAUGACACGCAAAACGCGUGCUCCGUUGAAUGGAGUUUAUCAUG [A40U G48C C69G C85U] | -1.48
GGAUCUUCUCGAUCUAACAAAAAAGACAAAUCUGCCACAUAGCUUGAGAGCAUCUUUGGAUGCAGAGGCGGCAGCCUUCGGUGGCGCGCUAGCGCCAAGGUUCUCAACUAUGACACGCGAAACGCGUGCUCCGUUGAAUGGAGUUUAUCAUG [A40U C57U A89C C99G A119G] | -1.22
GGAUCUUCUCGAUCUAACAAAAAAGACAAAUCUGCCACAUAGCUUGAGACCGUCUUCGGAUGCAGAGGCGGCAGCCUUCGGUGGAGCGACAGCGCCUACGUUCUCAACUAUGACACGCAAAACGCGUGCUCCGUUGAAUGGAGUUUAUCAUG [A40U G50C A52G C85A U90C A97U] | ≤ -4.2
GGAUCUUCUCGAUCUAACAAAAAAGACAAAUCUGCCACAUAGCUUGAGAGCAUCUUCGGAUUCAGAGGCGGGAGCCUUCCGCGGCGCGAUAGCGCCAACGUUCUCAACUAUGACACGCAAAACGCGUGCUCCGUUGAUUGGAGUUUAUCAUG [A40U G62U C72G G80C U82C A138U] | ≤ -4.2
GGAUCUUCUCGAUCUAACAAAAAAGACAAAUCUGCCACAUAGCUUGAGACCAUCUUCGGAUGCAGACGCGGCAGCCUUCGGUGGCGCGAUAGCGCCAACGUUAUCAACUAUGACACGCAAAACGCGUGGUCCGUUGAAUGGAGGUUAUCAUG [A40U G50C G67C C103A C129G U144G] | ≤ -4.2
GGAUCUUCUCGAUCUAACAAAAAAGACAAAUCUGCCACAUAGCUUGAGAGCAUCUUCGGAUGUAGAGGCCGCAGCCUUCGGUGGCGCGAUAGCGCCAACGUUCUCAACUAUGACACGCAAAACGCGUGCUCCGUUGAAUGGAGUUUAUCAUG [A40U C63U G70C] | -2.97
GGAUCUUCUCGAUCUAACAAAAAAGACAAAUCUGCCACAUAGCUUGAGAGCAUCUUCGGAUGCAGAGGCGGCAGCCUUCGGUGGCGUGAUAGCGCCAACGUUCUCAACUAUGACACGCAAAACGCGUGCUCCGUUGAAUGGAGUUUAUCAUG [A40U C87U] | -0.375
GGAUCUUCUCGAUCUAACAAAAAAGACAAAUCUGCCACAUAGCUUGAGAGCAUCUUCGGAUGCAGAGGCGGCAGCCUUCGGUGGCGAGAUAGCGCCAACGUUCUCAACUAUGACACGCAAAACGCGUGCUCCGUUGAAUGGAGUUUAUCAUG [A40U C87A] | -3.87
GGAUCUUCUCGAUCUAACAAAAAAGACAAAUCUGCCACAUAGCUUGAGAGCAUCUUCGGAUGCAGAGGCGGCAGCCUUCGGUGGCGCGAUAGCGCCAACGUUCUCAACUAUGAUACGCAAAACGCGUGCUCCGUUGAAUGGAGUUUAUCAUG [A40U C114U] | -2.19
GGAUCUUCUCGAUCUAACAAAAAAGACAAAUCUGCCACAUAGCUUGAGAGCAUCUUCGCAUGCAGAGGCGGCAGCCUUCGGUGGCGCGAUAGCGCCAACGUUCUCAACUAUGACACGCAAAACGCGUGCUCCGUUGAAUGGAGUUUAUCAUG [A40U G59C] | 0.561
GGAUCUUCUCGAUCUAACAAAAAAGACAAAUCUGCCACAUAGCUUGACAGCAUCUUCGGAUGCAGAGGCGGCAGCCUUCGGUGGGGCGAUAGCGCCAAAGUUCUCAACUAUGACACGCAAAACGCGUGCUCCGUUGAAUGGAAUUUAUCAUG [A40U G48C C85G C99A G143A] | ≤ -4.2
GGAUCUUCUCGAUCUAACAAAAAAGACAAAUCUGCCACAUAGCUUGAGAGCAUCUUCGGAUGCAGAGGCGGCAGCCUUCGGUGGCGCGAUAGCGCCAACGUUCUCAACUAUGACAAGCAAAACGCGUGCUCCGUUGAAUGGAGUUUAUCAUG [A40U C116A] | 0.309
GGAUCUUCUCGAUCUAACAAAAAAGACAAAUCUGCCACAUAGCUUGAGAGCAUCUUCGGAUGCAGAGGCGGCAGCCUUUGGUGGCGCGAUAGCGCCAACGUUCUCAACUAUGACACGCAAGACGCGUGCUCCGUUGAAUGGAGUUUAUCAUG [A40U C79U A121G] | -2.75
GGAUCUUCUCGAUCUAACAAAAAAGACAAAUCUGCCACAUAGCUUGAGAGCAUCUUCGGAUGCAGAGGCGGCAGGCUUCGGUGGGGCGAUAGCGCCAACGUUCUCAACUAUGACACGCAAAACGCGUGCUCCGUGGAAUUGAGUUUAUCAUG [A40U C75G C85G U135G G140U] | ≤ -4.2
GGAUCUUCUCGAUCUAACAAAAAAGACAAAUCUGCCACAUAGCUUGAGAGCAUCUUCGGAUGGAGAGGCGGCAGCCUUCGGUGGCGCGAUAGCGCCAACGUUCUCAACUAUGACACGCAAAACGCGUGCUCCGUUGAAUGGAGUUUAUCAUG [A40U C63G] | 0.0879
GGAUCUUCUCGAUCUAACAAAAAAGACAAAUCUGCCACAUAGCUUGAGAGCAUCUUCGGAUACAGAGGCGGCAGCCUUCGGUGGCGCGAUAGCGUCAACGUUCCCAACUAUGACACGCAAAACGCGUGCUCCCUUGAAUGGAGUUUAUCAUG [A40U G62A C95U U104C G133C] | -3.3
GGAUCUUCUCGAUCUAACAAAAAAGACAAAUCUGCCACAUAGCUUGAGAUCAUCUUCGGAUGCAGAGGCGGCAGCCUUCAGUGGCGCGAUAGCGCCAACGUUCUCAACUAUGACACGCAAAACGCAUGCUCGGUUGAAUGGAGUUUAUCAUG [A40U G50U G80A G126A C132G] | ≤ -4.2
GGAUCUUCUCGAUCUAACAAAAAAGACAAAUCUGCCACAUAGCUUGAGACCAUCUUCGGAUGCAGAGGCGGCAGCCUUCGGUGGUGCGAUAGCGCCAACGUUCUCAACUAUGACACGCAAAACGCGUGCUCCGUUGAAUGGAGUUUAUCAUG [A40U G50C C85U] | -2.29

— the RNAGym collection of RNA variant scans (doi:10.1073/pnas.2313332121)
